Numbering of substitutions follows the chain as printed.
B1: ADI-15647 (antibody, V domains shown)
VH: QVQLVQSGAEVKKPGSSVRVSCEASGGTFSTYAISWVRQAPGLGLEWMGGIHPISGTANYAQSFQDRLTITVDKSTSTAYMDLSSLRSEDTAIYYCARVGLGRTWIYDTMGYLDYWGQGTLVTVSS
VL: EIVLTQSPATLSLSPGERVTLSCRASQSVNDYLAWYQQKPGQAPRLLIYDASNRATGIPARFSGSGSGTDFTLTISSLEPEDFAVYYCQHRTNWPSLTFGGGTKVEIK
B2: ADI-15657 (antibody, V domains shown)
VH: QVQLVQSGTEVKKPGSSVKVSCKASGGTFSSYAISWVRQAPGQGLEWMGGIHPTSGPANYAQKFQDRVTITVDKSTSTVYMDLSSLRSEDTAVYYCARVGVGRTWIYDTMGYLDFWGQGTLVTVSS
VL: B1 VL with L4M, V19A, N30S, S76T, T92S, N93D, V105L
B3: ADI-15665 (antibody, V domains shown)
VH: QVQLVQSGPEVKRPGSSVKVSCKASGDTFNNYAISWVRQAPGQGLEWMGGIHPTTATPNYAQKFQGRVVISADKSTSTAYLDLSRLRSEDTAMYYCARVGVGRTWVYDIMGYLDYWGQGTLVTVSS
VL: B1 VL with V19A, N30S, K39R, N53T, A60D, S65G, T92N
B4: ADI-15601 (antibody, V domains shown)
VH: EVQLLETGGGLVKPGGSLRLSCEATGFTFSDFAMSWVRQAPGKGLEWVSLIKSSDYPYYADSVRGRFTISRDNSKNTLYLRMDNLRADDTAVYYCAKDADFWSGEAYNGGYNFDSWGQGTLVTVSS
VL: EIVLTQSPATLSVSPGERATLSCRASQSIGTNLAWYQQKPGQAPRLLIFGASTRATGIPARFTGSGSGTEFTLTIGSLQSEDFAVYYCQQYNQWPPITFGGGTKVEIK
notes: IgG
B5: ADI-15599 (antibody, V domains shown)
VH: EVQLLESGGGLVQPGRSLRLSCSGSGFTFGDYALSWVRQAPGKGLEWVGFIRSKAYGGTTEYAASVKGRFTISRDDSKSIAYLQMNSLKTEDTAVYYCTMAVVVPGATDAFDIWGQGTMVTVSS
VL: NFMLTQPHSVSESPGKTVTISCTRSSGSIASDYVQWFQQRPGSSPATVIYQDNQRPSGVPDRFSGSIDTSSNSASLTISGLKTEDEADYYCHSYDSSNPWVFGGGTKLTVL
notes: IgG; also called Antibody Number 165
B6: ADI-15667 (antibody, V domains shown)
VH: EVQLVESGGGLVQPGGSLRLSCAASGFTFSDFSMSWVRQAPGKGLEWVSLIKSSGYAYYADSVRGRFTISRDNSKNTLYLQMNSLRAEDTAIYYCAKDADFWSGAAYNGGYNFDSWGQGTLVTVSS
VL: DIQMTQSPATLSVFPGDRATLSCRASQSVGSNLAWYQQKPGQAPRLLIFGASTRATGIPARFSGSGSGTEFTLTISSLQSEDFAVYYCQQYHNWPPLTFGGGTKVDIK
notes: IgG
B7: ADI-15006 (antibody, V domains shown)
VH: EVQLVESGPGLVKPSGTLSLTCTVSGDSMSDYYWSWIRQSPGRGLEWLGYIYYDGSTNYNPSLKGRGTISIDTSKSQFSLTLSSVKAADTAVYYCARGKYYDRGGYYLFYLDYWGQGILVTVSS
VL: DIRLTQSPSSLSASVGDRVTITCRASQTIASYVNWYQQKPGKAPKLLIYAASSLQDGVPSRFSGSGSGTDFALTISSLQPEDFAIYFCQQSYSTPIFTFGPGTKVEIK
notes: IgG; also called Antibody Number 125
B8: ADI-15593 (antibody, V domains shown)
VH: QVQLVQSGGGLVRPGGSLRLSCAASGFMFSTYSMNWLRTVPGKGLEWVSSISGSSSHIYYADSVKGRFTISRDNTKNSLYLQMNSLRPEDTALYYCARYFGDYSGLGNYYYYGMDVWGQGTTVTVSS
VL: DIVMTQSPVSLPVTPGEPASISCRSSQSLLHSNGNNYLDWYLQRPGQSPQLLIYLGSNRASGVPDRFSGSGSGTDFTLRISRVEAEDVGVYYCMQALQTPRFGGGTKVEIK
notes: IgG; also called Antibody Number 160
B9: ADI-15588 (antibody, V domains shown)
VH: EVQLVESGPGLVKPSETLSLICRVFGGSVRRGDYNWNWIRQPPGKGLEWIGYIDYSGTTKYNPSLKSRVTISEDTSRNQFSLELRSVTAADTAMYYCARDVGSTPYNYYGMDVWGQGTTVTVSS
VL: EIVLTQSPGTLSLSPGERATLSCRASQTIKNNYLAWYQQKPGQAPRLLMYGVSSRPTGIPDRFSGSGSGTDFSLTIDRLEPEDFAVYYCQQFGRSPELTFGGGTKVEIK
notes: IgG; also called Antibody Number 155
B10: ADI-15660 (antibody, V domains shown)
VH: EVQLVQSGTEVKKPGESLKISCKASGYSSFPNWIGWVRQMPGKGLEYMGSIFPDDSNTRYSPSFRGLVAISADKSLRTAYLQWSSLKASDSAIYYCARGPFPHYFDSWGQGTLVTVSS
VL: NFMLTQPHSVSESPGKTVTISCTRSSGSIARNYVQWYQQRPGSSPTTVIYEDDQRPPGVPDRFSGSIDSSSNSASLTISGLQTEDEADYYCQSYDPTNQNVFGTGTKLTVL
notes: IgG
B11: ADI-15605 (antibody, V domains shown)
VH: QVQLVQSGPEVKKPGESLKISCKGSGYTFTTYWIGWVRQRPGKGLEWMGIIHPGDSDTRYSPSLQGQVTISVDKSINTAYLQWRSLKASDTGMYYCARFEYGDFGNDFWGQGTLVTVSS
VL: B10 VL with T23S, R31N, D53N, P57S, Q82K, P96S, T97S, Q99H, N100R, T104G
notes: IgG
B12: ADI-15611 (antibody, V domains shown)
VH: QVQLVESGAEVKKPGSSVKVSCKASGGTFGRDSISWVRQAPGQGLEWMGGINPIFHTSHYAQKFQGRVTITADESTSTAYMELGNLRSEDTAMYYCARVPPPRGHCESTSCLWGTYFAFWGQGTLVTVSS
VL: ETTLTQSPATLSLSPGERATLSCRASQRVRSYLAWYQQKPGQAPRLLIYDASIRATGIPARFSGSGSGADFTLTISSLEPEDFAVYYCQLRDYWPPTWTFGQGTKVEIK
notes: IgG
B13: ADI-15577 (antibody, V domains shown)
VH: QVQLVQSGAEVKKPGSSVKVSCKASGGTFGSYAISWVRQAPGQGLEWMGGTIPIFGTADHAQKFQGRVTITADKSTSTAYMELSSLRSEDTAVYYCARGVFRVGCSDTSCLKNYYGTDVWGQGTTVTVSS
VL: QSVLIQPASVSGSPGQSITVSCTGSSGDVGAYKYVSWYQQHPGRGPKLIIYDVSARPSGISDRFSGSKSGNTASLTISGLQAEDEADYYCSSYSSSSTLVVFGGGTKVTVL
notes: IgG
B14: ADI-15600 (antibody, V domains shown)
VH: EVQLVESGGGLIQPGGSLRLSCAVSGFSVSSNYISWVRQPPGKGLEWVSVSYSSGVTDYADSVKGRFTTSRDNSKNTLYLQMNSLRGEDTAVYYCARELVPNFYESHGYFSVWGQGTLVTVSS
VL: DIVMTQSPGTLSLSPGERATLSCRASQRVDSSYLAWYQQKPGQAPRLLIYGGSSRATGIPDRFSGSGSGTDFTLTISRLEPEDFALYYCQQYGFSQTFGQGTKVEIK
notes: IgG; also called Antibody Number 166
B15: ADI-15582 (antibody, V domains shown)
VH: QVQLVQSGGEVKKPGASVKVSCKASGYTFISYGITWVRQAPGQGPEWMGWISPYNGDTNYAQKLQGRVTMTTDTSTTTAYMELRSLRSDDTAIYYCARRYDILTGGGWFDSWGQGTLVTVSS
VL: DIVMTQSPSSLSASVGDRVTINCRASQSIISYLNWYQQKPGKAPELLIYAASSLQSGVPSRFSGSGSGTEFTLTISSLQPEDFATYYCQQSYSTPLSFGPGTKVEIK
notes: IgG
B16: ADI-15556 (antibody, V domains shown)
VH: QVQLVQSGAEVKKPGSSVKVSCKASGGNVNIYGISWVRQAPGQGLEWMGGIIPIYDTTKYAQKFQDRVTITADKSTSTAYMELSSLRSEDTAVYFCARDLDYDILTGYSVNYYYYGMDVWGQGTTVTVSS
VL: QSVLTQPPSVSGAPGQRVTISCTGSSSNIGAGYDVHWYQQLPGTAPKLLIYGNINRPSGVPDRFSGSKSGTSASLAITGLQAEDEADYYCQSCDSSLSGWVFGGGTKLTIL
notes: IgG

molecular target: HMPV F protein (NL/1/00, A1 sublineage), on virus (human metapneumovirus); assay: cell-based or functional assay

| Binder | HMPV-A1 IC50 [mg/L] |
| --- | --- |
| B1 | 20.3 |
| B2 | 11.9 |
| B3 | 13.5 |

molecular target: T1, RSV F protein of subtype A strain A2, on virus (respiratory syncytial virus subtype A …, UniProt P03420 26-574); assay: cell-based or functional assay

| Binder | RSV-A2 IC50 [mg/L] |
| --- | --- |
| B1 | > 25 |
| B2 | > 25 |
| B3 | 12.7 |

molecular target: T1, RSV F protein of subtype A strain A2, …; assay: cell-based or functional assay; remark: another data set of the same source

| Binder | Neut IC50 (ug/ml) subtype A [µg/mL] |
| --- | --- |
| B4 | 0.046 |
| B5 | 0.11 |
| B6 | 0.039 |
| B7 | 19.1 |
| B8 | > 10 |
| B9 | 0.094 |
| B10 | 17.3 |
| B11 | > 10 |
| B12 | 0.15 |
| B1 | > 10 |
| B2 | > 10 |
| B3 | 12.7 |
| B13 | > 10 |
| B14 | 1.31 |
| B15 | 2.22 |
| B16 | 0.055 |

molecular target: RSV F protein of subtype B strain 18537, on virus (respiratory syncytial virus subtype B …, UniProt P13843 26-574); assay: cell-based or functional assay

| Binder | Neut IC50 (ug/ml) subtype B [µg/mL] |
| --- | --- |
| B4 | 0.084 |
| B5 | 0.378 |
| B6 | 0.048 |
| B7 | > 10 |
| B8 | > 10 |
| B9 | 0.234 |
| B10 | > 10 |
| B11 | > 10 |
| B12 | 0.432 |
| B1 | > 10 |
| B2 | > 10 |
| B3 | 6.25 |
| B13 | > 10 |
| B14 | 0.958 |
| B15 | 6.74 |
| B16 | 0.081 |

molecular target: T2, prefusion-stabilized RSV F ectodomain (DS-Cav1), subtype B (respiratory syncytial virus subtype B); assay: BLI, IgG on sensor
T2 construct: extracellular domain; also called Prefusion subtype B

| Binder | Kd [nM] |
| --- | --- |
| B4 | 0.329 |
| B5 | 0.246 |
| B6 | 0.333 |
| B7 | 4.2 |
| B8 | 3.95 |
| B9 | 0.427 |
| B10 | 0.89 |
| B11 | 3.49 |
| B12 | 4.34 |
| B13 | 4.66 |
| B14 | 1.42 |
| B15 | 2.32 |
| B16 | 2.2 |

molecular target: T3, postfusion RSV F ectodomain (F ΔFP), subtype A (respiratory syncytial virus subtype A, UniProt P03420 26-109; P03420 147-524); assay: BLI, IgG on sensor
T3 construct: extracellular domain; also called Postfusion subtype A

| Binder | Kd [nM] |
| --- | --- |
| B4 | 0.207 |
| B5 | 1.23 |
| B6 | 0.231 |
| B7 | 0.243 |
| B8 | 0.507 |
| B9 | 0.353 |
| B10 | 0.098 |
| B11 | 0.163 |
| B12 | 0.626 |
| B13 | 0.779 |
| B14 | 0.162 |
| B15 | 0.385 |
| B16 | 0.247 |

molecular target: T4, postfusion RSV F ectodomain, subtype B (respiratory syncytial virus subtype B); assay: BLI, IgG on sensor
T4 construct: extracellular domain; also called Postfusion subtype B

| Binder | Kd [nM] |
| --- | --- |
| B4 | 0.193 |
| B5 | 0.652 |
| B6 | 0.208 |
| B7 | 3.61 |
| B8 | 0.761 |
| B9 | 0.953 |
| B10 | 0.105 |
| B11 | 0.171 |
| B12 | 0.609 |
| B13 | 0.679 |
| B14 | 0.148 |
| B15 | 0.295 |
| B16 | 0.19 |
